Results as given in patent US20200109196A1 (MOGAM INSTITUTE FOR BIOMEDICAL RESEARCH, published 2020).

Target: T1, recombinant CEACAM1 protein (UniProt P13688 35-428, limits assumed)
T1 sequence (looked up): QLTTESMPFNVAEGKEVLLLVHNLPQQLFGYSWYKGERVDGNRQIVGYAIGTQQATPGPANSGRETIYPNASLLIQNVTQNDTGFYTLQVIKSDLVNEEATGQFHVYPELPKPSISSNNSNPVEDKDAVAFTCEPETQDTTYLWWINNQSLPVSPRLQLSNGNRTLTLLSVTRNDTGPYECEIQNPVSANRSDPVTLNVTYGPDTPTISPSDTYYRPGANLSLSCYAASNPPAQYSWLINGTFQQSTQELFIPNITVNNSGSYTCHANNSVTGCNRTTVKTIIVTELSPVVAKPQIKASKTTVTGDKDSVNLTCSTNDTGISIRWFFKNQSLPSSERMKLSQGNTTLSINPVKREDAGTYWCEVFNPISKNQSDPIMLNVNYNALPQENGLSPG
Assay: ELISA, coated recombinant CEACAM1, anti-human IgG-HRP detection
Experimental: Then, each well was washed 3 times with a washing buffer prepared by diluting 10 μl of Tween 20 (Sigma-Aldrich; Cat. No. P9146) in 990 μl of PBS.

B1: C25 (antibody, human IgG4 S228P, lambda, V domains shown)
VH: EVQLLESGGGLVQPGGSLRLSCAASGFTFSNYAMSWVRQAPGKGLEWVSVISHGGGSIYYADSVKGRLTISRDNSKNTLYLQMNSLRAEDTAVYYCARDPTKGYAPTFDYWGQGTLVTVSS
VL: QSVLTQPPSASGTPGQRVTISCSGSSSNIGNNYVSWYQQLPGTAPKLLIYADSKRPSGVPDRFSGSKSGTSASLAISGLRSEDEADYYCGAWDASLNGYVFGGGTKLTVLG
notes: Made in ExpiHEK293F cells, protein A purified. huIgG4 is the isotype control and anti-huIgG4 the detection reagent; the isotype is not otherwise stated; also called anti-CEACAM1 antibody C25
EC50: 0.35 nM
